# From patent US20210155689A1 (SHANGHAI PHARMAEXPLORER, published 2021)
# T1: LAG-3-hFc protein (human LAG-3 extracellular region with hFc tag) (human, UniProt P18627 23-450)
# T1 construct: also called hLAG-3-hFc; LAG-3 protein; not shown: human IgG Fc fragment (hFc) of the pCpC vector
# T1 sequence: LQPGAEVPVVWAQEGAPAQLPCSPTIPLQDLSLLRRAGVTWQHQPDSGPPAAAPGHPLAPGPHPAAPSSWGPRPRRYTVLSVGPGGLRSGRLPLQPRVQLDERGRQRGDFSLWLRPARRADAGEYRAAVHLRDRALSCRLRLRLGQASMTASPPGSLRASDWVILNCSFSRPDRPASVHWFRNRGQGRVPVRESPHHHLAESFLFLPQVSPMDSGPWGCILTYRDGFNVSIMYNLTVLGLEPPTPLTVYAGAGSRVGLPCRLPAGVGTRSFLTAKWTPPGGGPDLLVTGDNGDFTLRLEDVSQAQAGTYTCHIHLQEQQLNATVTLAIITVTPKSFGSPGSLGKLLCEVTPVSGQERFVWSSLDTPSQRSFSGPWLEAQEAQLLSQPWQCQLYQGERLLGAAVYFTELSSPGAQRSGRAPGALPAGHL
# T2: human LAG-3 ECD (antigen protein of the affinity test) (human, UniProt P18627 23-450)
# T2 sequence: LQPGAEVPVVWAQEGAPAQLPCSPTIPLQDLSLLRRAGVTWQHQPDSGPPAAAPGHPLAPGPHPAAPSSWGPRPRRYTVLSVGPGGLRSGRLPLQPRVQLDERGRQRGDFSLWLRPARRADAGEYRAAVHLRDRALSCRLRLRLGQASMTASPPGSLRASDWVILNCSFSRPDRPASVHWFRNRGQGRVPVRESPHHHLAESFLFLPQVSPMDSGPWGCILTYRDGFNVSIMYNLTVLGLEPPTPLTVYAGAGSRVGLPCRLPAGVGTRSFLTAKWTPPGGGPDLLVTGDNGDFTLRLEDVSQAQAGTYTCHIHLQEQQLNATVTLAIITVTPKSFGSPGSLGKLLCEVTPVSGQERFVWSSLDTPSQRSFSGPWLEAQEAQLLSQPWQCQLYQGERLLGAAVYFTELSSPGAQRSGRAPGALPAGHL
# What was measured:
# [1] = biological target: T1, LAG-3-hFc protein (human LAG-3 …); test: FACS, inhibition of LAG-3-hFc binding to MHC II on Raji cells, antibody 200.000 nM
# Method: The FACS reaction plate incubating the Raji cells was centrifuged to discard the supernatant. The above mixture was added as 100 μl per well to Raji cells and incubated on ice for 1-2 hours. The plate was washed twice with blocking solution (PBS, 2% fetal bovine serum) by centrifugation, added with 100 microliters of fluorescent (Alexa 488)-labeled secondary antibodies per well, and incubated on ice for 1.0 hours. The plate was washed 2-3 times by centrifugation with blocking solution (PBS, 2% fetal bovine serum), added with 100 microliters of PBS per well to suspend cells, and detected using FACS (FACS Calibur, BD) and the results were analyzed. Wherein, the IgG control was murine IgG, and the data in the table is the inhibition rate (%).
# [2] = biological target: T2, human LAG-3 ECD (antigen protein of the …); test: SPR, CM5 chip, antibody captured by anti-human Fc IgG, antigen in flow, 1:1 fit
# Method: First, anti-human Fc IgG was immobilized on the surface of the CM5 chip to 6000-10000 RU by amino coupling method, with FC1 as the reference channel. The coupling process was as follows: a freshly prepared 1:1 mixture of 50 mM NHS and 200 mM EDC was activated for 7 minutes, then injected with 10-50 ug/ml anti-human Fc IgG diluted in 10 mM sodium acetate ph5.0 buffer. The remaining activated sites were blocked with 1M ethanolamine. Then, HBS-EP+ buffer was used to dilute the antibody to be tested to 5 ug/ml (adjustable according to the capture level) and the antibodies were captured on the chip at a flow rate of 10 ul/min to obtain a response value of about 100˜300 RU. Then the antigen protein was diluted to 100 nM (the highest concentration was tentatively 100 nM), and flew through the chip surface at a flow rate of 30 ul/min. If enough signal value was obtained, the antigen-protein was diluted by several concentration gradients, and flew through the chip surface respectively. At the end of each cycle, the chip surface was regenerated with 10 mM Glycine at pH 1.5. The kinetic rate constant needed to be subtracted from the blank control, and the data was fitted with the global fit analysis method 1:1 combination model. The dissociation equilibrium rate constant (KD) was calculated according to the following formula: KD=kd/ka.
Binder,Inhibition rate (%) [1] [%],Kd [2] [nM],koff [2] [s⁻¹],kon [2] [M⁻¹ s⁻¹]
"105F1E10 mouse-human chimeric antibody (antibody, V domains shown, also called mAb009-105F1E10) VH: EVQLQQSGPELVKPGASVKMSCRASGYTFTDFKMHWMKQSHGKSLEWIGYIAPNNGGTAYNQKFRGKATLTVNESSNTAYMELRSLTSEDSAVYYCVDWDDVDYWGQGTTLTVSS VL: DIKMTQSPSSMYASLGERVTITCKASQDINSYLSWFQQKSGKSPKTLIYRANRLVDGVPSRFSGSGSGQDYSLTISSLEYEDMGIYYCLQYVEFPLTFGAGTKLELK",96,2.51,9.66e-05,38500
"405B8H3 mouse-human chimeric antibody (antibody, V domains shown, also called mAb103-405B8H3) VH: QVQLQQSGAELVRPGASVTLSCKASGYTFTDYEMHWVKQTPVHGLEWIGATDPETGNSAYNQKFKGKAIMTADKSSSTAYMELRSLTSEDSAVYYCISTGWNDWGQGTSLTVSS VL: DIKMTQSPSSMYASLGERVTITCKASQDINSYLSWFQQKPGKSPKTLIYRADRLLDGVPSRFSGSGSGQDYSLTISSLEYGDMGIYYCLQYDEFPYTFGGGTKLEIK",95.2,1.96,0.000158,80400
